Entries after “also recorded” stand apart in the source; their conditions may differ.
Key:
[1] = target: T1, insulin-insulin interaction (Homo sapiens, UniProt P01308); assay: SPR: effect of substances mixed with insulin in solution on insulin-insulin interaction; assay type: binding; details: for effect on insulin-insulin interaction when injected along with insulin: 1:5 molar ratio
T1 construct: 28; purchased Novo Nordisk A/S, Denmark Actrapid
Experimental: BiacorA Biacore 3000 instrument was employed for the interaction measurements based on surface plasmon resonance (SPR). Interaction analyses were performed at 25° C. in 10 mM Na-citrate buffers pH 3, 4, 5, 10 mM bis-Tris, pH 6, and 10 mM Tris/HC1, pH 7, all buffers containing 100 mM NaCl and 0.005% 5P20. Flow rates for the binding analyses were kept at 20 μl/min. […] Insulin was immobilized on a carboxymethyl-modified dextran surface via both amine and carboxyl coupling, using the surface thiol method, in two different lanes of Biacore CM5 chips. The immobilization was carried out according to the procedure described in the kits. In brief, the sensor chip surface was first washed with 4 M LiCl/HBS for 1 min and then with 0.2% SP20/HBS for 1 mM. The surface was activated according to standard procedure with an injection of 0.05 M NHS/0.2 M EDC for 7 min. Desalted insulin solution was diluted in acetate buffer, pH 4.5, to 20 μg/ml and injected at 50/min for different time intervals. For surface thiol coupling, the surface was first activated with 0.05 M NHS/0.2 M EDC for 2 min followed by a 3 min injection of 40 mM cystamine dihydrochloride and then 0.1 M DTE for 3 min. […] The mixture was incubated for 10 mM at room temperature and excess PDEA was removed on a NAP-10 column. The purified PDEA ligand was injected for 7 min, soon after DTE, and finally the surface was washed with 20 mM PDEA in 0.1 M sodium acetate, 1.0 M NaCl. For quick regeneration of the surface, 2 M guanidine-HC1, pH 6.4, was employed. For controls, lanes activated and deactivated according to the standard procedures were used. For subtraction of noise from the data, running buffer only was injected to all surfaces. For the C-terminal attachment, surface-thiol coupling to 4000-5000 RU was used, and for N-terminal attachment, amine coupling to 800-1000 RU as achieved on different CM5 chips. However for kinetic analysis immobilization was carried out in a controlled condition and around 1000 RU for C-terminal and 400 RU for N-terminal coupling were immobilized. A surface activated with EDC/NHS and deactivated with ethanolamine was used as a control surface for N-terminally immobilized insulin and a surface treated with EDC/NHS, cysteine/DTE and finally deactivated with PDEA-NaCl was used as a control for C-terminally immobilized insulin. Biacore data were analyzed with Bia-evaluation software 4.1. All calculations based on numerical approaches, including simulations and global curve fitting for estimates of active concentrations, were performed with IGOR Pro (version 4.01.A, WaveMetrics, Inc.). However, C-peptide, mixed with insulin in solution, influences the insulin-insulin monomer interactions measured above. […] This elevated interaction can be seen at different pH from 3-7. The phenomenon of more pronounced interaction was clearer when concentrations higher than 0.5 μM were used then below 0.5 μM. […] All concentrations were run in triplicates and in random order.

[2] = target: T2, insulin immobilized on the surface of CM5 chip (Homo sapiens, UniProt P01308); assay: SPR: direct binding of C-peptide and variants to insulin immobilized on CM5 chip; details: pM-μM, pH 3-7
T2 construct: 28; purchased Novo Nordisk A/S, Denmark Actrapid
Experimental: BiacorA Biacore 3000 instrument was employed for the interaction measurements based on surface plasmon resonance (SPR). Interaction analyses were performed at 25° C. in 10 mM Na-citrate buffers pH 3, 4, 5, 10 mM bis-Tris, pH 6, and 10 mM Tris/HC1, pH 7, all buffers containing 100 mM NaCl and 0.005% 5P20. Flow rates for the binding analyses were kept at 20 μl/min. […] Insulin was immobilized on a carboxymethyl-modified dextran surface via both amine and carboxyl coupling, using the surface thiol method, in two different lanes of Biacore CM5 chips. The immobilization was carried out according to the procedure described in the kits. In brief, the sensor chip surface was first washed with 4 M LiCl/HBS for 1 min and then with 0.2% SP20/HBS for 1 mM. The surface was activated according to standard procedure with an injection of 0.05 M NHS/0.2 M EDC for 7 min. Desalted insulin solution was diluted in acetate buffer, pH 4.5, to 20 μg/ml and injected at 50/min for different time intervals. For surface thiol coupling, the surface was first activated with 0.05 M NHS/0.2 M EDC for 2 min followed by a 3 min injection of 40 mM cystamine dihydrochloride and then 0.1 M DTE for 3 min. […] The mixture was incubated for 10 mM at room temperature and excess PDEA was removed on a NAP-10 column. The purified PDEA ligand was injected for 7 min, soon after DTE, and finally the surface was washed with 20 mM PDEA in 0.1 M sodium acetate, 1.0 M NaCl. For quick regeneration of the surface, 2 M guanidine-HC1, pH 6.4, was employed. For controls, lanes activated and deactivated according to the standard procedures were used. For subtraction of noise from the data, running buffer only was injected to all surfaces. […] Similar results where obtained when insulin was injected on C-peptide immobilized on the surface of a streptavidin (SA) chip. Both peptides were injected in concentration ranging from pM-μM at different pH from 3-7. […] This conclusion is compatible with the fact that C-peptide and insulin are joined in proinsulin by covalent bonds rather than binding attachments, and with little ordered structure in the C-peptide part. […] This appears relevant since C-peptide is very negative (−6 charges) with much repulsive forces.

[3] = target: T3, chip-bound C-peptide (Homo sapiens, UniProt P01308); assay: SPR: binding of C-peptide in solution to chip-bound C-peptide
T3 sequence (P01308 57-87 limits assumed): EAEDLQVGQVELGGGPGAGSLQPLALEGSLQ
Experimental: Similar results where obtained when insulin was injected on C-peptide immobilized on the surface of a streptavidin (SA) chip. Both peptides were injected in concentration ranging from pM-μM at different pH from 3-7. […] This conclusion is compatible with the fact that C-peptide and insulin are joined in proinsulin by covalent bonds rather than binding attachments, and with little ordered structure in the C-peptide part. […] This appears relevant since C-peptide is very negative (−6 charges) with much repulsive forces.

[4] = target: T4, insulin (Homo sapiens, UniProt P01308); assay: Non-denaturing nano-electrospray mass spectrometry of insulin, C-peptide and control peptides; assay type: binding
T4 construct: 28; purchased Novo Nordisk A/S, Denmark Actrapid
Experimental: For mass spectrometric analysis, preparation of concentrated insulin stock solution was performed essentially as described [Nettleton et al, 2000, Biophys J. 79:1053]. Briefly, insulin (NovoNordisk A/S, Denmark) was concentrated to 100 μM using ultrafiltration spin-filters (NanoSep, PallGellman, MWCO: 3000 Da). This stock solution was then buffer-exchanged to water, pH 5 (HCl), by extended dialysis. For all experiments, insulin and C-peptide stock solutions were diluted in water-HC1 (pH 5) to reach the indicated concentrations. C-peptide was prepared as a 746 μM stock solution in water and all control peptides were prepared similarly.
Mass spectrometry data were recorded with a QTOF Ultima API instrument (Waters, Milford, Mass.) operated in the positive ion mode. Sample solutions were analyzed by nanoelectrospray from conductive borosilicate glass capillaries (Proxeon Biosystems A/S, Odense, Denmark). Instrument settings were not modified for the observation of non-covalent complexes, other than that the “cone” and the “RF-lens” settings were set to 90 and 50 V, respectively.
The binding between insulin and C-peptide in the gas-phase was studied by non-denaturing electrospray mass spectrometry using a method analogous to that of Nettleton et al [Nettleton et al, 2000, Biophys J. 79:1053].

T2 sequence (P01308 25-54 limits assumed): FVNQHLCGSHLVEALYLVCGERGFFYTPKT
T2 sequence (P01308 90-110 limits assumed): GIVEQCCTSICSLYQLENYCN
T1 sequence (P01308 25-54 limits assumed): as the sequence (P01308 25-54 limits assumed) above
T4 sequence (P01308 25-54 limits assumed): as above

| effect of C-peptide on insulin-insulin interaction at pH 4 or 7 ([1]; pH 4 or 7, 10 μM insulin, 50 μM C-peptide) | effect of C-peptide on insulin-insulin interaction at pH 5-6 ([1]; pH 5-6, 10 μM insulin, 50 μM C-peptide) | interaction with immobilized insulin (peptide alone in solution) [2] | interaction with immobilized insulin (peptide alone in solution) ([2]; listed as Proinsulin C-peptide) | binding of C-peptide in solution to chip-bound C-peptide [3] | self-aggregation of the peptide in the gas-phase [4] | interaction with insulin in nanoESI-MS at 0.3 μM ([4]; 0.3 μM level, 1:1 ratio) | interaction (heterodimer) with insulin in nanoESI-MS ([4]; 3 μM, 1:1 ratio, pH 5) | concentration at which a dimer of the peptide was detected ([4]; gas-phase) | effect on insulin-insulin interaction when injected along with insulin [1] | stimulation of SPR-measurable binding in mixture with insulin in the flow-through solution ([1]; Example 10) | Substance | effect on insulin-insulin interaction (SPR binding signal) when mixed with insulin ([1]; insulin:peptide 1:1 and 1:5, pH 3-7) | hexameric insulin charge states in the presence of the peptide ([4]; 30 μM insulin, 30 μM peptide, pH 5) |
| --- | --- | --- | --- | --- | --- | --- | --- | --- | --- | --- | --- | --- | --- |
| little effect | Enhanced insulin interaction | not to give any observable binding | showed no interaction with insulin | no evidence for such binding | showed an aggregation tendency | not possible to detect | clearly shows the interaction | 3 µM |  |  | Proinsulin C-peptide (EAEDLQVGQVELGGGPGAGSLQPLALEGSLQ) | higher interaction with immobilized insulin; also recorded: increases the observable SPR binding signal | no hexameric insulin was detectable; also recorded: absence of insulin hexamers |
|  |  | showed no interaction with insulin |  |  |  |  |  |  | failed to show any significant increase |  | Glu11-Ala: C-peptide analogue in which Glu 11 has been substituted with Ala (EAEDLQVGQVALGGGPGAGSLQPLALEGSLQ) |  |  |
|  |  | showed no interaction with insulin |  |  |  |  |  |  | failed to show any significant increase | did also not stimulate the SPR signal | Glu27-Ala: C-peptide analogue in which Glu 27 has been substituted with Ala (EAEDLQVGQVELGGGPGAGSLQPLALAGSLQ) |  |  |
